Changes are numbered by the printed parent chain. Where two headings read alike, the source gives them in different places.
B1: 411Pro (protein, UniProt P62694 18-513, looked up, variant R411P)
Exoglucanase 1: QSACTLQSETHPPLTWQKCSSGGTCTQQTGSVVIDANWRWTHATNSSTNCYDGNTWSSTLCPDNETCAKNCCLDGAAYASTYGVTTSGNSLSIGFVTQSAQKNVGARLYLMASDTTYQEFTLLGNEFSFDVDVSQLPCGLNGALYFVSMDADGGVSKYPTNTAGAKYGTGYCDSQCPRDLKFINGQANVEGWEPSSNNANTGIGGHGSCCSEMDIWEANSISEALTPHPCTTVGQEICEGDGCGGTYSDNRYGGTCDPDGCDWNPYRLGNTSFYGPGSSFTLDTTKKLTVVTQFETSGAINRYYVQNGVTFQQPNAELGSYSGNELNDDYCTAEEAEFGGSSFSDKGGLTQFKKATSGGMVLVMSLWDDYYANMLWLDSTYPTNETSSTPGAVPGSCSTSSGVPAQVESQSPNAKVTFSNIKFGPIGSTGNPSGGNPPGGNRGTTTTRRPATTTGSSPGPTQSHYGQCGGIGYSGPTVCASGTTCQVLNPYYSQCL
B2: 411His (protein, UniProt P62694 18-513, looked up, variant R411H)
Exoglucanase 1: B1 Exoglucanase 1 with P394H
B3: 411Met (protein, UniProt P62694 18-513, looked up, variant R411M)
Exoglucanase 1: B1 Exoglucanase 1 with P394M
B4: 268A+411Val (protein, UniProt P62694 18-513, looked up, variant R268A R411V)
Exoglucanase 1: B1 Exoglucanase 1 with R251A, P394V
B5: 268A+411Cys (protein, UniProt P62694 18-513, looked up, variant R268A R411C)
Exoglucanase 1: B1 Exoglucanase 1 with R251A, P394C
B6: 268A+411Asp (protein, UniProt P62694 18-513, looked up, variant R268A R411D)
Exoglucanase 1: B1 Exoglucanase 1 with R251A, P394D
B7: 411Thr (protein, UniProt P62694 18-513, looked up, variant R411T)
Exoglucanase 1: B1 Exoglucanase 1 with P394T
B8: 411Arg (protein, UniProt P62694 18-513, looked up)
Exoglucanase 1: B1 Exoglucanase 1 with P394R
B9: 268A+411Met (protein, UniProt P62694 18-513, looked up, variant R268A R411M)
Exoglucanase 1: B1 Exoglucanase 1 with R251A, P394M
B10: 268Glu+411A (protein, UniProt P62694 18-513, looked up, variant R268E R411A)
Exoglucanase 1: B1 Exoglucanase 1 with R251E, P394A
B11: 268Phe+411A (protein, UniProt P62694 18-513, looked up, variant R268F R411A)
Exoglucanase 1: B1 Exoglucanase 1 with R251F, P394A
B12: 268Pro (protein, UniProt P62694 18-513, looked up, variant R268P)
Exoglucanase 1: B1 Exoglucanase 1 with R251P, P394R
B13: 268Val+411A (protein, UniProt P62694 18-513, looked up, variant R268V R411A)
Exoglucanase 1: B1 Exoglucanase 1 with R251V, P394A

Tests used:
[1] = 4-MUL assay, specific activity (Example 2); type: biochemical; conditions: for 411— Measured Specific Activity (SA) / 411— Δ SA* (change in specific activity; ratio of variant: WT): 411 single substitution; for 268A+411— Measured Specific Activity (SA) / 268A+411— Δ SA* (change in specific activity; ratio of variant: WT): double mutant 268A+411X; for 268— +411 A Measured Specific Activity (SA) / 268— +411 A Δ SA* (change in specific activity; ratio of variant: WT): double mutant 268X+411A
How it was run: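 Specific activity derived from 4-MU standard curves and HPLC-quantified enzyme. Initial rates were taken over the first 15 min, with an endpoint read at 1 h (pH 10 carbonate quench), all at ex 365/em 450 nm. Conditions: 0.5 mM 4-MUL, 5 μg/mL enzyme, MES pH 6, 25 mM gluconolactone, cellobiose optional.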

[2] = 4-MUL cellobiose tolerance/inhibition assay, dose-response IC50 (Example 2); type: biochemical; conditions: for synergy of double mutant (measured vs expected additive IC50) / 268_+411A Synergistic**↑: measured versus expected additive IC50
How it was run: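 IC50 reflects cellobiose concentration halving activity, fitted by four-parameter dose-response with zero activity fixed at knockout-strain background. Assays used 4-MUL (0.5 mM) with enzyme at 5 μg/mL or less, pH 6 MES, 25 mM gluconolactone blocking BG, cellobiose up to 100 mM; 4-MU fluorescence read.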

[3] = 411 single substitution, averaged IC50 from Tables 8-11, read-out: 411— Measured (merged IC50)
[4] = double mutant 268A+411X, averaged IC50 from Tables 8-11, read-out: 268A+411— Measured (merged IC50)
[5] = double mutant 268A+411X, expected IC50 (additive values of single mutations), read-out: 268A+411— Expected IC50
[6] = double mutant 268X+411A, averaged IC50 from Tables 8-11, read-out: 268_+411A Measured (merged IC50)
[7] = double mutant 268X+411A, expected IC50 (additive values of single mutations)

Row | Molecule | 411— Measured Specific Activity (SA) [1] [μmol 4 MU/min/mg CBH I] | 411— Δ SA* (change in specific activity; ratio of variant: WT) [1] | IC50 [2, 3] [mM] | 268A+411— Measured Specific Activity (SA) [1] [μmol 4 MU/min/mg CBH I] | 268A+411— Δ SA* (change in specific activity; ratio of variant: WT) [1] | IC50 [2, 4] [mM] | IC50 [2, 5] [mM] | synergy of double mutant (measured vs expected additive IC50) ([2]; double mutant 268A+411X) | further results
1 | B1 | 0.70 | 0.9 | 1.13 | – | – | – | – | – | –
2 | B2 | 0.80 | 1.0 | 2.93 | – | – | – | – | – | –
3 | B3 | 0.57 | 0.7 | 3.34 | – | – | – | – | – | –
4 | B4 | – | – | – | 1.78 | 2.3 | 14.8 | 3.73 | 4.0 | –
5 | B5 | – | – | – | 1.85 | 2.4 | 10.2 | 1.74 | 5.8 | –
6 | B6 | – | – | – | 2.21 | 2.9 | 11.5 | 2.28 | 5.0 | –
7 | B7 | 0.48 | 0.6 | 1.97 | – | – | – | – | – | –
8 | B8 | 0.83 | 1.1 | 0.05 | – | – | – | – | – | –
9 | B9 | – | – | – | 1.78 | 2.3 | 11.7 | 3.91 | 3.0 | –
10 | B10 | – | – | – | – | – | – | – | – | 268— +411 A Measured Specific Activity (SA) [1]: 0.58 μmol 4 MU/min/mg CBH I; 268— +411 A Δ SA* (change in specific activity; ratio of variant: WT) [1]: 0.8; IC50 [2, 6]: 16.7 mM; 268 +411A Expected IC50 [2, 7]: 1.8 mM; 268_+411A Synergistic**↑ ([2]; double mutant 268X+411A): 9.3
11 | B11 | – | – | – | – | – | – | – | – | 268— +411 A Measured Specific Activity (SA) [1]: 2.07 μmol 4 MU/min/mg CBH I; 268— +411 A Δ SA* (change in specific activity; ratio of variant: WT) [1]: 2.7; IC50 [2, 6]: 9.7 mM; 268 +411A Expected IC50 [2, 7]: 1.65 mM; 268_+411A Synergistic**↑ ([2]; double mutant 268X+411A): 5.9
12 | B12 | – | – | – | – | – | – | – | – | 268— Measured Specific Activity (SA) ([1]; 268 single substitution): 3.38 μmol 4 MU/min/mg CBH I; 268— Δ SA* (change in specific activity; ratio of variant: WT) ([1]; 268 single substitution): 4.4; IC50 ([2]; 268 single substitution, averaged IC50 from Tables 8-11, read-out: 268— Measured (merged IC50)): 0.52 mM
13 | B13 | – | – | – | – | – | – | – | – | 268— +411 A Measured Specific Activity (SA) [1]: 1.43 μmol 4 MU/min/mg CBH I; 268— +411 A Δ SA* (change in specific activity; ratio of variant: WT) [1]: 1.9; IC50 [2, 6]: 9.49 mM; 268 +411A Expected IC50 [2, 7]: 1.57 mM; 268_+411A Synergistic**↑ ([2]; double mutant 268X+411A): 6.0
